Experiment [1] addresses CD95 (APO-1 or Fas), mouse, endogenous in neural stem cells / brain tissue (mouse) (UniProt P25446). Put plainly: cell-based or functional assay.
Experiment [2] concerns GSK3β and AKT phosphorylation. Nature of the experiment: Western blot of GSK3β and AKT phosphorylation in NSCs. The format is cell-based, mouse. Conditions: inhibitor pretreatment. Here is the method:
Western Blots. Phosphorylated GSK3β (P-Ser9-GSK3β, 1:1000), phosphorylated AKT (P-Ser473-KT, 1:1000), total AKT (T-AKT, 1:1000), Src family kinases (Src, 1:1000), cleaved caspase 3 (1:250), total β-Catenin (1:1000) and phosphorylated src (Tyr416) were purchased from Cell Signaling/New England Biolabs. pp60(c-Src) antibody was purchased from Upstate. Antibody against total GSK3β (T-GSK3β, 1:1000), were purchased from Santa Cruz. The PI3K inhibitor […] (25 μM) and the Src family kinase inhibitor PP2 (20 μM) were purchased from Calbiochem. Cells were preincubated with inhibitors 30 minutes (LY 294002) and 1 hour (PP2) prior to treatment. Cells were lysed for further biochemical analysis. Protein extraction and immunoblotting was performed as previously described.

For the next experiment, the system named is SVZ NSCs. Nature of the experiment: β-III-tubulin expression in adult SVZ neural progenitor cells (flow cytometry). As to conditions: exogenous BDNF alone; data not shown. It is filed as cell-based, mouse. An excerpt:
Lentiviral infections. SVZ NSCs were infected with the lentiviral vector pEIGW and pEIGW-GSK3βS9A at a multiplicity of infection (MOI) of 5. The plasmids were constructed by replacing the eGFP sequence between the EF1α promotor and the WPRE element in pWPTS-eGFP with the IRES-eGFP cassette form pIRES2-eGFP (Clontech, Germany). The recombinant lentiviral vector pEIGW-GSK3βS9A was constructed using pcDNA3 HA-GSK3βS9A. This vector encodes a constitutively active GSK3β mutant containing a serine-to-alanine substitution at residue 9 (GSK3βS9A). Expression of all transgenes was confirmed in infected cells by FACS analysis of GFP expression. The percentage of infected cells was 70-90%.
siRNA. […] 48 h later pp60 src knockdown was assessed by Western Blot. At the same time, cells were stimulated with CD95L-T4 and analysed after 48 h for β-III-tubulin positive cells.
For staining of intracellular markers, cells were harvested, fixed with 4% PFA for 10 min on ice, washed and permeabilized using 0.1% Saponin (Sigma-Aldrich) in PBS with 10% FCS (SAP). […] Cells were washed again three times with SAP and analysed. […] To quantify DNA fragmentation, cells detached with trypsin were centrifuged, washed and fixed with 70% ethanol at −20° C. for 1 h. […] After final washings, all samples were analysed using a FACS-Calibur (Becton Dickinson) and CellQuest Software (Becton Dickinson). […]

For a further experiment, the system named is neural progenitor cells. Put plainly: GFAP expression (glial differentiation) in neural progenitor cells. As to conditions: data not shown. The format is cell-based, mouse. Here is the method:
For staining of intracellular markers, cells were harvested, fixed with 4% PFA for 10 min on ice, washed and permeabilized using 0.1% Saponin (Sigma-Aldrich) in PBS with 10% FCS (SAP). Cells were incubated with primary antibody or isotype for 30 min on ice. Cells were washed three time with SAP and incubated with secondary antibody for 30 min on ice. Cells were washed again three times with SAP and analysed. Antibodies used were: anti β-III-tubulin (Chemicon) 1:100, anti GFAP (Chemicon) 1:100 and isotype mouse IgG1 (Sigma) 1:20. Secondary antibody was goat anti-mouse PE 1:100 (Dianova). To quantify DNA fragmentation, cells detached with trypsin were centrifuged, washed and fixed with 70% ethanol at −20° C. for 1 h. Fixed cells were resuspended in a hypotonic lysis buffer (0.1% sodium citrate and 0.1% Triton X-100) containing […] of propidium iodide, incubated at 4° C. overnight. After final washings, all samples were analysed using a FACS-Calibur (Becton Dickinson) and CellQuest Software (Becton Dickinson).
Mouse adult neural stem cell culture. NSCs were isolated as previously described^30. Briefly, 6 week old female C57BL6 mice were sacrificied and tissue from hippocampus, SVZ and spinal cord was dissected out. […]

The test system of a further experiment is mouse adult SVZ NSCs. Put plainly: Gene expression by quantitative real-time PCR in adult SVZ NSCs. Conditions: 48 h after stimulation. The format is cell-based. Here is the method: Real-time Quantitative PCR. 24 h cells after plating cells were stimulated with 1 activation unit of CD95L-T4. After 48 h RNA was isolated using the RNeasy Mini Kit (Qiagen). Real-time quantitative PCR was carried out using Sybr Green core kits (Eurogentec) and Uracil-N-glycosylase (Eurogentec). For determining CD95L induction after global ischemia, the hippocampi were dissected out and stored in RNAlater reagent (Ambion). RNA was extracted using the RNeasy Mini Kit (Qiagen). Real-time quantitative PCR was carried out using Sybr Green core kits (Eurogentec) and Uracil-N-glycosylase (Eurogentec). Primers used for quantitative real-time PCR were designed using Primer 3 software (http://fokker.wi.mit.edu/cgi-bin/primer3/primer3_www.cgi).

This note sets out measurements from US20110300113A1, “Death Receptor CD95 Controls Neurogenesis of Adult Neural Stem Cells in Vivo and in Vitro” (DEUTSCHES KREBSFORSCHUNGSZENTRUM, priority 2006, published 2011).

Sequence of CD95 (APO-1 or Fas), mouse, endogenous in neural stem cells / brain tissue (mouse) (P25446 22-327): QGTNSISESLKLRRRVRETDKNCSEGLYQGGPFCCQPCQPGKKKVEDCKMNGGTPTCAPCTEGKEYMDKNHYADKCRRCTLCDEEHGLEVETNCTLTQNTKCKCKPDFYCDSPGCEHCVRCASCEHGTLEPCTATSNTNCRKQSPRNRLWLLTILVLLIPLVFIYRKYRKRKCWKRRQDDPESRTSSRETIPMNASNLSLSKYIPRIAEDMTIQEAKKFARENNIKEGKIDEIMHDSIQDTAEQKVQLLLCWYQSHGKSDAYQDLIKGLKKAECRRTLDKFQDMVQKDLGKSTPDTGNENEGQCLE

Take “mus musculus CD95-Ligand-T4 (mmCD95L-T4) (from UniProt P41047 140-279; P10104 458-484)”: in experiment [1], the PI3K activity at 1 min after treatment with 1 U of CD95L-T4 (relative to untreated = 1) (fold of untreated) came out at 1.38; the PI3K activity at 5 min after treatment with 1 U of CD95L-T4 (relative to untreated = 1) (fold of untreated) was 1.53; the β-III-tubulin positive cells, NSCs with control siRNA, after CD95L-T4 turned out to be 18.1%; the β-III-tubulin positive cells, NSCs with transfection reagent only, after CD95L-T4 stood at 17.1%.
As to `CC(C)(C)n1nc(-c2ccc(Cl)cc2)c2c(N)ncnc21` [PP2], the “phosphorylation of GSK3β” value in experiment [2] (CD95-induced) is reported as “inhibited phosphorylation”. Besides, the “phosphorylation of AKT” value in experiment [2] (induced by CD95L) is “inhibited phosphorylation”.

B1: BDNF: brain-derived nerve factor, a neurotrophin (protein, UniProt P23560 19-247, looked up)
Neurotrophic factor BDNF …: APMKEANIRGQGGLAYPGVRTHGTLESVNGPKAGSRGLTSLADTFEHVIEELLDEDQKVRPNEENNKDADLYTSRVMLSSQVPLEPPLLFLLEEYKNYLDAANMSMRVRRHSDPARRGELSVCDSISEWVTAADKKTAVDMSGGTVTVLEKVPVSKGQLKQYFYETKCNPMGYTKEGCRGIDKRHWNSQCRTTQSYVRALTMDSKKRIGWRFIRIDTSCVCTLTIKRGR
As to B1, the β-III-tubulin expression result with SVZ NSCs is “did not increase β-III-tubulin expression”.

B2: CNTF: inducer of astrocytic differentiation (protein, UniProt P26441 1-200, looked up)
Ciliary neurotrophic factor: MAFTEHSPLTPHRRDLCSRSIWLARKIRSDLTALTESYVKHQGLNKNINLDSADGMPVASTDQWSELTEAERLQENLQAYRTFHVLLARLLEDQQVHFTPTEGDFHQAIHTLLLQVAAFAYQIEELMILLEYKIPRNEADGMPINVGDGGLFEKKLWGLKVLQELSQWTVRSIHDLRFISSHQTGIPARGSHYIANNKKM
With B2, the GFAP expression result in the experiment with neural progenitor cells is given as “enhanced expression of GFAP”. Besides, in the experiment with mouse adult SVZ NSCs, the BDNF expression result is recorded as “induced”, the “Doublecortin like kinase1 (DCLK) expression” value is “no effect on DCLK expression”, the “Jagged1 mRNA levels” value was “decreased” and the “Neurogenin (Ngn1) expression” value is given as “almost complete loss of Ngn1 mRNA”.
